According to patent US20260184815A1 (published 2026):

B1: M197-G10 (Fab, V domains shown)
VH: EVQLLESGGGLVQPGGSLRLSCAASGFTFSVYAMRWVRQAPGKGLEWVSSIYPSGGKTWYADSVKGRFTISRDNSKNTLYTLQMNSLRAEDAVYYCAYRRTGIPRRDAFDIWGQGTMVTVSS
VL: DIQMTQSPSTLSASVGDRVTITCRASQSISSWLAWYQQKPGKAPNLLIYKASTLESGVPSRFSGSGSGTEFTLTISSLQPDDFATYYCQQYNTYWTFGQGTKVEIK
B2: M198-A01 (Fab, V domains shown)
VH: EVQLLESGGGLVQPGGSLRLSCAASGFTFSPYTMIWVRQAPGKGLEWVSSISSSGGMTPYADSVKGRFTISRDNSKNTLYLQMNSLRAEDTAVYYCAYRRTGIPRRDAFDIWGQGTMVTVSS
VL: DIQMTQSPSTLSASVGDRVTITCRASQSISSWLAWYQQKPGKAPNLLIYKASTLESGVPSRFSGSGSGTEFTLTISSLQPDDFATYYCQQYNTYWTFGQGTKVEIK
B3: M201-F11 (Fab, V domains shown)
VH: EVQLLESGGGLVQPGGSLRLSCAASGFTFSHYIMMWVRQAPGKGLEWVSGIYSSGGITVYADSVKGRFTISRDNSKNTLYLQMNSLRAEDTAVYYCAYRRSGIPRRDAFDIWGQGTMVTVSS
VL: DIQMTQSPSTLSASVGDRVTITCRASQSISSWLAWYQQKPGKAPNLLIYKASTLESGVPSRFSGSGSGTEFTLTISSLQQPDDFATYYCQYNTYWTFGQGTKVEIK
B4: M209-C12 (Fab, V domains shown)
VH: EVQLLESGGGLVQPGGSLRLSCAASGFTFSHYLMTWVRQAPGKGLEWVSYISPSGGHTIYADSVKGRFTISRDNSKNTLYLQMNSLRAEDTAVYYCARVGRGIAARSRTSQLDYWGQGTLVTVSS
VL: DIQMTQSPGTLSLSPGERATLSCRTSQFVNSNYLAWYQQTPGQAPRLLIYGASSRATGIPDRFSGTGYGTDFTLTISRLEPEDYGTYYCQQSSRTPWTFGQGTRVEIK
B5: M209-D03 (Fab, V domains shown)
VH: EVQLLESGGGLVQPGGSLRLSCAASGFTFSHYLMTWVRQAPGKGLEWVSYISPSGGHTIYADSVKGRFTISRDNSKNTLYLQMNSLRAEDTAVYYCARVGRGIAARSRTSFFDQWGQGTLVTVSS
VL: DIQMTQSPGTLSLSPGERATLSCRTSQFVNSNYLAWYQQTPGQAPRLLIYGASSRATGIPDRFSGTGYGTDFTLTISRLEPEDYGTYYCQQSSRTPWTFGQGTRVEIK
B6: M161-C11 (Fab, V domains shown)
VH: EVQLLESGGGLVQPGGSLRLSCAASGFTFSDYAMKWVRQAPGKGLEWVSSISSSGGVTQYADSVKGRFTISRDNSKNTLYLQMNSLRAEDTAVYYCAREEDYSSSWYSRRFDYYYGMDVWGQGTTVTVSS
VL: QSALTQPPSVSVSPGQTASITCSGDKLGDKYVSWYQQRPGQSPVLVIYQDTKRPSGIPERFSGSNSGNTATLTISGTQAVDEADYYCQAWDSSTYVFGGGTKVTVL
notes: HC as printed runs into CH1
B7: M152-A12 (Fab, V domains shown)
VH: EVQLLESGGGLVQPGGSLRLSCAASGFTFSPYFMGWVRQAPGKGLEWVSGIGPSGGSTTYADSVKGRFTISRDNSKNTLYLQMNSLRAEDTAVYYCAREGPPYSSGWYRGLRQYHFDYWGQGTLVTVSS
VL: DIQMTQSPSSLSASVGDRVTITCRASQSISSYLSWYQQRPGKAPNLLIYAASSLQSGVPSRFSGSGSGTDFTLTISSLQPEDFATYYCQQSISIPRTFGQGTKVEVK
notes: HC as printed runs into CH1
B8: M8-G09 (Fab, V domains shown)
VH: EVQLLESGGGLVQPGGSLRLSCAASGFTFSLYEMLWVRQAPGKGLEWVSVIYPSGGYTDYADSVKGRFTISRDNSKNTLYLQMNSLRAEDMAVYYCARSFSGFGEIDYWGQGTLVTVSS
VL: DIQMTQSPSSLSASVGDTVTITCRASQGVSYYLAWFQQKPGKAPKSLIYGASSLQSGVPSKFSGSGSGTVFTLTISSLQPDDFATYYCQQYNTYPPTFGQGTRLDIK
notes: HC as printed runs into CH1
B9: M9-A03 (Fab, V domains shown)
VH: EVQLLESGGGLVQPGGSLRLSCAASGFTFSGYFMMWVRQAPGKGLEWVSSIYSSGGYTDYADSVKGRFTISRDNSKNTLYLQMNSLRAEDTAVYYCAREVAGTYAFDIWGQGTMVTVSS
VL: DIQMTQSPSSLSASLGDRVTITCRASQNIDIYLNWYQQTPGKAPKLLIYGAYNLQSGVPSRFSGSGSGTDFTLTISSLQPEDFGTYYCQQSYGTPVFGQGTKLEIK
notes: HC as printed runs into CH1
B10: M9-C08 (Fab, V domains shown)
VH: EVQLLESGGGLVQPGGSLRLSCAASGFTFSHYGMVWVRQAPGKGLEWVSYIVPSGGLTYYADSVKGRFTISRDNSKNTLYLQMNSLRAEDTAVYYCARVDYTGDGLGYWGQGTLVTVSS
VL: DIQMTQSPSSLSASVGDRVTITCRASQSISIYVNWYQQKPGKAPNLLIFAASSLQRGVPSRFSGSGSGADFTLTISSLQPEDFATYYCQQSFSTPLTFGGGTKVEIK
notes: HC as printed runs into CH1
B11: M8-H04 (Fab, V domains shown)
VH: EVQLLESGGGLVQPGGSLRLSCAASGFTFSGYWMGWVRQAPGKGLEWVSSISSSGGWTQYADSVKGRFTISRDNSKNTLYLQMNSLRAEDTATYYCARDDEIAAGGAFDIWGQGAMVTVSS
VL: DIQMTQSPSSLSASIGDRVTITCRASQYISTYLNWYEQKPGKAPKLLIYGTSSLQSGVPSRFSGSGSGTEFSLTISSLQPEDFATYYCQQSFTTPFTFGQGTKLEIK
notes: HC as printed runs into CH1
B12: M9-A08 (Fab, V domains shown)
VH: EVQLLESGGGLVQPGGSLRLSCAASGFTFSAYEMWWVRQAPGKGLEWVSYIGSSGGSTSYADSVKGRFTISRDNSKNTLYLQMNSLRAEDTAVYYCTGGNSSSFDAFDIWGQGTMVTVSS
VL: DIQMTQSPSSLSASVGDRVTVTCRASQRISTYLNWYQQKPGKAPKLLISGASSLQSGVPSRFSGSGSGTDFTLTISSLQPDDFATYYCQQSYNTPRTFGQGTKVEIR
notes: HC as printed runs into CH1
B13: M6-A08 (Fab, V domains shown)
VH: EVQLLESGGGLVQPGGSLRLSCAASGFTFSPYPMQWVRQAPGKGLEWVSSISSSGGMTEYADSVKGRFTISRDNSKNTLYLQMNSLRAEDTAVYYCARDDYGGKGGAFDIWGQGTMVTVSS
VL: DIQMTQSPSSLSASVGDRVTITCRASQRISFYLNWFQQKPGKAPNLLIYGASSLQSGVPSRFSGSGSGTDFTLTISSLQPKDFGTYYCQQTFSTPNTFGQGTKLEIK
notes: HC as printed runs into CH1
B14: M8-C04 (Fab, V domains shown)
VH: EVQLLESGGGLVQPGGSLRLSCAASGFTFSYYPMQWVRQAPGKGLEWVSYIYPSGGLTSYADSVKGRFTISRDNSKNTLYLQMNSLRAEDTAVYYCARLFYGSGSVGFEYWGQGTLVTVSS
VL: QSALTQPPSVSVSPGQTASITCSGDKLGDKYTSWHQQKPGQSPVLVIYQDSKRPSGIPERFSGSNSGNTATLTISGTQAMDEADYYCQAWDSSTVFGGGTRLTVL
notes: HC as printed runs into CH1
B15: M8-D05 (Fab, V domains shown)
VH: EVQLLESGGGLVQPGGSLRLSCAASGFTFSLYNMNWVRQAPGKGLEWVSSISPSGGFTDYADSVKGRFTISRDNSKNTLYLQMNSLRAEDTAVYYCARDLDLGILDYWGQGTLVTVSS
VL: DIQMTQSPSFVSASVGDRVTITCRASQDISSWLVWYQQKPGKGPKLLIYDASNLQSGVPSRFSGGGSGTHFTLTISSLQPEDFATYYCQQADGFPLTFGGGTKVEMK
notes: HC as printed runs into CH1
B16: M8-E06 (Fab, V domains shown)
VH: EVQLLESGGGLVQPGGSLRLSCAASGFTFSHYFMTWVRQAPGKGLEWVSSIVPSGGMTQYADSVKGRFTISRDNSKNTLYLQMNSLRAEDTAVYYCARDSYSSSWFDIWGQGTMVTVSS
VL: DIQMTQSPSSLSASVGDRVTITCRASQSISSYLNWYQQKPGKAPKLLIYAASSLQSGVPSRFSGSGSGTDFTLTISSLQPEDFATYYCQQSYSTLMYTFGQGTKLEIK
notes: HC as printed runs into CH1
B17: M6-D08 (Fab, V domains shown)
VH: EVQLLESGGGLVQPGGSLRLSCAASGFTFSRYHMVWVRQAPGKGLEWVSSISPSGGWTNYADSVKGRFTISRDNSKNTLYLQMNSLRAEDTAMYYCAREMATIAGQFDPWGQGTLVTVSS
VL: DIQMTQSPSSLSASVGDRVTITCRASQSISSYLNWYQQKPGKAPKLLIYGASSLQSGVPSRFSGSGSGTDFTLTISSLQPEDSATYYCQQSYTRWTFGQGTKVEIK
notes: HC as printed runs into CH1; LC amber q (WYqQK) written as Q
B18: M162-A04 (Fab) (Fab, V domains shown)
VH: EVQLLESGGGLVQPGGSLRLSCAASGFTFSHYIMMWVRQAPGKGLEWVSGIYSSGGITVYADSVKGRFTISRDNSKNTLYLQMNSLRAEDTAVYYCAYRRTGIPRRDAFDIWGQGTMVTVSS
VL: DIQMTQSPSTLSASVGDRVTITCRASQSISSWLAWYQQKPGKAPNLLIYKASTLESGVPSRFSGSGSGTEFTLTISSLQPDDFATYYCQQYNTYWTFGQGTKVEIK
notes: Non-germlined Fab discovered using phage display; HC as printed runs into CH1
B19: M6-A06 (Fab, V domains shown)
VH: EVQLLESGGGLVQPGGSLRLSCAASGFTFSLYQMTWVRQAPGKGLEWVSGIWPSGGFTDYADSVKGRFTISRDNSKNTLYLQMNSLRAEDTAVYYCARVSTAVADNDYWGQGTLVTVSS
VL: DIQMTQSPSSLSASVGDSVTISCRASQSISMYLNWYQHKPGKAPKLLIYGTSSLQSGVPSRFSGSGPGGTDFTLTISSLQPEDFATYYCQQSYSAPWTFGQGTKVEIK
notes: HC as printed runs into CH1
B20: M6-D03 (Fab, V domains shown)
VH: EVQLLESGGGLVQPGGSLRLSCAASGFTFSKYFMGWVRQAPGKGLEWVSVIGSSGGWTSYADSVKGRFTISRDNSKNTLYLQMNSLRAEDTAVYYCARVSTAVADNDYWGQGTLVTVSS
VL: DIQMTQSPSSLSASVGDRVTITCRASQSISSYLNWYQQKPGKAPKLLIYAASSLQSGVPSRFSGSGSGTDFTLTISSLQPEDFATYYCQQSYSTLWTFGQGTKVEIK
notes: HC as printed runs into CH1
B21: M160-G12 (Fab) (Fab, V domains shown)
VH: EVQLLESGGGLVQPGGSLRLSCAASGFTFSHYLMTWVRQAPGKGLEWVSYISPSGGHTIYADSVKGRFTISRDNSKNTLYLQMNSLRAEDTAVYYCARVARGIAARSRTSYFDYWGQGTLVTVSS
VL: DIQMTQSPSFLSASVGDRVTITCRASQGISSYLAWYQQKPGKAPKLLIYAASTLQSGVPSRFSGSGSGTEFTLTISSLQPEDFATYYCQQLNSYPLTFGGGTKVEIK
notes: HC as printed runs into CH1
B22: M6-G05 (Fab, V domains shown)
VH: EVQLLESGGGLVQPGGSLRLSCAASGFTFSRYRMVWVRQAPGKGLEWVSSIYPSGGMTAYADSVKGRFTISRDNSKNTLYLQMNSLRAEDTAVYYCARDAVGIGDAFDIWGQGTMVTVSS
VL: DIQMTQSPSSLSASVGDRVTITCRASQSISTYLNWYQLKPGKAPKLLIYNAFSMERGVPSTISGSGSGTDFTLTISSLQPEDFATYYCQQSYTTPTTFGQGTKVEIK
notes: HC as printed runs into CH1

target: T1, human plasma kallikrein (human, UniProt P03952 20-390; P03952 391-638); assay: cell-based or functional assay
T1 sequence (P03952 20-390, chain 1 of 2): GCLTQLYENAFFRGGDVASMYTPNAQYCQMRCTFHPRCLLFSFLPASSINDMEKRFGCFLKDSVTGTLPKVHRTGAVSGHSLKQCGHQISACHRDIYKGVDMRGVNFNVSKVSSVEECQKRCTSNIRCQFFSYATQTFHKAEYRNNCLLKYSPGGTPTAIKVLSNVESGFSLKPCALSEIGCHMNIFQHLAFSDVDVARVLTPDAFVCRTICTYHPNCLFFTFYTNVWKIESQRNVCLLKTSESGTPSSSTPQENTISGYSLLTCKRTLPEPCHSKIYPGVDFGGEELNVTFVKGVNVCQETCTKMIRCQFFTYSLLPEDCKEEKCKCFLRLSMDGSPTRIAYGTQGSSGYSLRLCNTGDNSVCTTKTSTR
T1 sequence (P03952 391-638, chain 2 of 2): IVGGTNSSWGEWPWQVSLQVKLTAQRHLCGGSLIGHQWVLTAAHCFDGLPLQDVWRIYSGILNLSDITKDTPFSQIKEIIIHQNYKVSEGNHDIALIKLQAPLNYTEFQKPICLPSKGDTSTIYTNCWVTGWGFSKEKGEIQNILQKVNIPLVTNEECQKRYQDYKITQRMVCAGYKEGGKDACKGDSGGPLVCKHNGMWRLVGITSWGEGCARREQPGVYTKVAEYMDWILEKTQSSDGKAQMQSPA

In order of falling “% inhibition at 10 nM” value:
1. B1  67.6%
2. B3  15.7%
3. B2  13.8%

target: T1, human plasma kallikrein; assay: cell-based or functional assay; remark: another data set of the same source

In order of rising “% inhibition at 10 nM” value:
1. B5  80.4%
2. B4  93.4%

target: T2, human plasma kallikrein (human, UniProt P03952 20-390; P03952 391-638); assay: ELISA, biotinylated pKal signal over streptavidin background
T2 construct: also called pKal; Human pKal
Text: Abbreviations used: “T/B” is the ELISA signal obtained using of the “target” (biotinylated plasma kallikrein) divided by the ELISA signal of the “background” (streptavidin); both of which were coated on microtiter plates, “nd” is not determined. The symbol “q” refers to the amber suppressible stop codon (TAG), which is translated as glutamine (Q) in strains of E. coli such as the TG1 cells that were used to express the Fab fragments.
T2 sequence (P03952 20-390, chain 1 of 2): as the sequence (P03952 20-390, chain 1 of 2) above
T2 sequence (P03952 391-638, chain 2 of 2): as the sequence (P03952 391-638, chain 2 of 2) above

In order of rising “ELISA (T/B)” value:
1. B11  3.3 T/B
2. B12  5.5 T/B
3. B16  8.8 T/B
4. B10  10.9 T/B
5. B18  11.4 T/B
6. B19  11.7 T/B
7. B15  11.9 T/B
8. B9  14.4 T/B
9. B20  15.5 T/B
10. B17  16 T/B
11. B22  18.5 T/B
12. B7  19 T/B
13. B13  23.4 T/B
14. B8  28.2 T/B
15. B21  38.3 T/B
16. B6  41.8 T/B
17. B14  44.7 T/B
